Test results as given in patent US20180066066A1 (University of Texas, published 2018).

Legend:
[1] = molecular target: T1, human HER3 receptor on cells (human, UniProt P21860 20-1342); assay: cell-based or functional assay
[2] = molecular target: T1, human HER3 receptor on cells; assay: cell-based or functional assay; remark: listed apart in the source
[3] = molecular target: T2, human HER3/ErbB3 extracellular domain (human, UniProt P21860 20-643); assay: SPR, Biacore T-100; antibody captured by anti-rabbit IgG, recombinant human HER3 as analyte
T2 construct: extracellular domain; the range 1-643 of M34309 is printed only for the immunogen; also called Human HER3 ECD; recombinant human HER3
Procedure: All experiments were performed at 25° C. at a flow rate of 45 μl/min. To prepare a BIAcore assay, an anti-rabbit IgG antibody (50 μg/ml each in acetate buffer, pH 5.0) was immobilized onto a carboxymethyl dextran sensorchip (CM5) using amine coupling procedures as described by the manufacturer. Purified rabbit Mabs to be tested were diluted at a concentration of 5 μg/ml in 0.5% P20, HBS-EP buffer and injected on FC2 to reach 500 to 1000 RU. FC1 was used as the reference cell. Specific signals correspond to the difference of signals obtained on FC2 versus FC1. The analyte (recombinant human HER3, apparent molecular weight 97 kDa on SDS-PAGE gel) was injected during 90 sec at series of concentration dilutions (100, 50, 25, 12.5, 6.25, and 3.13, 1.56 nM) in 0.5% P20, HBS-EP buffer. These concentrations were prepared from stock solution in 0.5% P20, HBS-EP. The dissociation phase of the analyte was monitored over a 30 minute period. Running buffer was also injected under the same conditions as a double reference. After each running cycle, both flow cells were regenerated by injecting 20 to 45 μl of glycine-HCl buffer pH 1.5. Binding KD on HER3 was calculated by koff/kon kinetic rate for each HER3 monoclonal antibody (Table 2).

[4] = molecular target: T3, Her3/His10 receptor (UniProt P21860 20-643, limits assumed); assay: AlphaScreen, blocking of biotinylated NRG-1beta binding to Her3/His10 (column head prints EC50, title and text IC50)
T3 construct: extracellular domain; also called HER3 ECD tagged with 10 histidine (His); not shown: tag of 10 histidines
Procedure: HER3 ligand neuregulin (NRG1) can bind on HER3 extracellular domain and activates HER3 phosphorylation and down-stream signaling. Blocking ligand binding on HER3 by the selected rabbit HER3 monoclonal antibodies was determined using alpha screen format assay. NRG1 (R&D Systems) was biotinylated using a biotinylation kit (Fisher Scientific) and HER3 ECD was tagged with 10 histidine (His). Purified anti-HER3 Mabs were serially diluted two-fold into an assay buffer made from 25 mM Hepes, 100 mM NaCl, 0.5% BSA and 0.05% Tween20 in an opaque/white, half-well area plate (Costar). Rabbit IgG1 was used as a negative control. Biotinylated NRG-lbeta ligand and Her3/His₁₀ receptor were added sequentially at 10 nM concentration to the assay plate containing serially diluted antibodies. The mixture of receptor, ligand and the antibodies was incubated at room temperature with gentle shaking for 90 minutes. AlphaScreen Streptavidin Donor beads and His-Nickel Acceptor beads were added into the assay at a final concentration of 20 μg/ml each. The assay plates were covered with foil and incubated at room temperature with gentle shaking for 1 hour. The plates were read in EnVision plate reader.

[5] = molecular target: T2, human HER3/ErbB3 extracellular domain; assay: ELISA on human HER3 ECD
[6] = molecular target: T2, human HER3/ErbB3 extracellular domain; assay: SPR, Biacore T-100, HER3 ECD
[7] = molecular target: T1, human HER3 receptor on cells; assay: cell-based or functional assay; remark: listed apart in the source
[8] = molecular target: T1, human HER3 receptor on cells; assay: cell-based or functional assay; remark: listed apart in the source
[9] = molecular target: T4, Mouse HER3 ECD (mouse, UniProt Q61526 20-641); assay: ELISA on mouse HER3 ECD
T4 construct: extracellular domain; also called mouse HER3 ECD domains
T4 sequence (Q61526 20-641): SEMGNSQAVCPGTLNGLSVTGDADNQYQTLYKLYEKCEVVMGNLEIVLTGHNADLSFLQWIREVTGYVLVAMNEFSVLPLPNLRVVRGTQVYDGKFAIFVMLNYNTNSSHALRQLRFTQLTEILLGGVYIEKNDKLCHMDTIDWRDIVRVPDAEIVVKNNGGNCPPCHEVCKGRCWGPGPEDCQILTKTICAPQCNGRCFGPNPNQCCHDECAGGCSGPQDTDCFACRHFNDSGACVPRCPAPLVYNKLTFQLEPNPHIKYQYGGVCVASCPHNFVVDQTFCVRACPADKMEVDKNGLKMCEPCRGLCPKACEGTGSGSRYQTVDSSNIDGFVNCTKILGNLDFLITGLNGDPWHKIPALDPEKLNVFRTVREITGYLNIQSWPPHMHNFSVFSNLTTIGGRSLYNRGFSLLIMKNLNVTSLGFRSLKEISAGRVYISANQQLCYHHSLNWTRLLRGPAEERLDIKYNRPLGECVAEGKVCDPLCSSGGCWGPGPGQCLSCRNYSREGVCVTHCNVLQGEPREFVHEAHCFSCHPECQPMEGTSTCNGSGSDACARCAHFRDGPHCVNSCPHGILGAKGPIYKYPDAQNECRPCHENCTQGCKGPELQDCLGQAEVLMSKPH

T1 sequence (P21860 20-1342): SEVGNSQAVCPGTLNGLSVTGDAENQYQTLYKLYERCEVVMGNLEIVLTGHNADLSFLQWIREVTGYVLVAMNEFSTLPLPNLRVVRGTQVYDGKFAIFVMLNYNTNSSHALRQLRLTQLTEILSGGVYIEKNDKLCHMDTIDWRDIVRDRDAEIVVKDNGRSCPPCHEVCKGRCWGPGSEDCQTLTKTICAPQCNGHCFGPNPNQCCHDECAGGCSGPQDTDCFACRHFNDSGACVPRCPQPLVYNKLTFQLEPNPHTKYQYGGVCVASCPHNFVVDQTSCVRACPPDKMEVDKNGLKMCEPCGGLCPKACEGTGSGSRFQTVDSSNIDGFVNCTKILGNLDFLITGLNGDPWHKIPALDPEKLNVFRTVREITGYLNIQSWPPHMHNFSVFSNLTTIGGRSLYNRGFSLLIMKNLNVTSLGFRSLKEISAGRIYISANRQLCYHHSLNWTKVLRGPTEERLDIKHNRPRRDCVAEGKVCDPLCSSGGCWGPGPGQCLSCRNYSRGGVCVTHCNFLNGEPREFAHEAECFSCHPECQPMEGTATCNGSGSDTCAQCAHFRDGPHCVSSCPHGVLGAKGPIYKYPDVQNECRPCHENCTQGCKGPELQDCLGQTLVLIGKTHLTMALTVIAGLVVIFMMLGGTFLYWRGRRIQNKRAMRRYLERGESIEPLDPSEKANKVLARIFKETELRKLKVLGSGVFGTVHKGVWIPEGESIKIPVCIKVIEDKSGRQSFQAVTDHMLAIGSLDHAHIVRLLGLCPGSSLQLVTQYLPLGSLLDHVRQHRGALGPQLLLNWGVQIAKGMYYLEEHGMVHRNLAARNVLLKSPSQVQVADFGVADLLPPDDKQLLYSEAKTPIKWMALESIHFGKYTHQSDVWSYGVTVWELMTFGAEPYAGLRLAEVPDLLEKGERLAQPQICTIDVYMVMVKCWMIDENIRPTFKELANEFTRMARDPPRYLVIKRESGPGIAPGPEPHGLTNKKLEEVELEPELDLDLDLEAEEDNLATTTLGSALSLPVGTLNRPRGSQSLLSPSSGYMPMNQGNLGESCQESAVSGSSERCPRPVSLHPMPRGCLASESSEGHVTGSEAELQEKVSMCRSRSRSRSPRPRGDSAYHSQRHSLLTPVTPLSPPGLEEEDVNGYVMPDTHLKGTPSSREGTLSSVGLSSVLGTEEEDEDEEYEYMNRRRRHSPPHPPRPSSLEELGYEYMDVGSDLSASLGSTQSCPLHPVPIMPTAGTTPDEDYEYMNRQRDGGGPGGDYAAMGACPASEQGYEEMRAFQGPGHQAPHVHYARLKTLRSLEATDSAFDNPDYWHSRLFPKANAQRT
T3 sequence (P21860 20-643 limits assumed): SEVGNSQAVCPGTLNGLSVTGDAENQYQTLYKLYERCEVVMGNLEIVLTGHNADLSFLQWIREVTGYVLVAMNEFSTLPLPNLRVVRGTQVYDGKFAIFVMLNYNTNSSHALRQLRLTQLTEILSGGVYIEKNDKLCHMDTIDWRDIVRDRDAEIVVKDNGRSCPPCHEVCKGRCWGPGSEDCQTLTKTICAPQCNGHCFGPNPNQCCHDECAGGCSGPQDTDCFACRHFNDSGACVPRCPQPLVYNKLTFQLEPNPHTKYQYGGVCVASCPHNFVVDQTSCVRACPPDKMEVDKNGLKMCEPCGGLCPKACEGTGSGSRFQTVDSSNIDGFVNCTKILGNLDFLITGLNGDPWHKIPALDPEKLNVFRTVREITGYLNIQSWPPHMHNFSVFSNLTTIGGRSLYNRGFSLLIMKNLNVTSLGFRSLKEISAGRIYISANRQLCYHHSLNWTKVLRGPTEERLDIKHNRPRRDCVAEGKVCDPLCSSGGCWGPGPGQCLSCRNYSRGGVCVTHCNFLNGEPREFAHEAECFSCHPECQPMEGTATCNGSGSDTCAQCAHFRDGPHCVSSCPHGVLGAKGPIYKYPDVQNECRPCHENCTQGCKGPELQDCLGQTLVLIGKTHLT
T2 sequence (P21860 20-643): as the sequence (P21860 20-643 limits assumed) above

Row | Binder | % Receptor Internalization [1] | pAKT inhibition, EC50 (nM) [2] | pERK ½ inhibition, EC50 (nM) [2] | pHER3 inhibition, EC50 (nM) [2] | Kd [3] | IC50 [4] | EC50 [5] | EC50 [9] | other results
1 | Rab46 (antibody, V domains shown, also called Rab46 monoclonal antibody) VH: EEQLVESGGGLVQPEGSLTLTCTASGFSFSASYYIYWVRQAPGKGLEGIAYITGDDDKRTYYANWAKGRFTISKTSTTVTLQMTSLTAADTATYFCTRNLPDELWGPGTLVTVSS VL: QAVVTQTPSSVSAAVGGTVTISCQSSESVYSYKNLAWYQQKPGQPPRLLIWQASRLSSGVSSRFSGSGSGTQFTLTISGVQCDDAATYYCQGTYYSSAWDFVFGGGTEVMVE | 39% | 3.8 nM | 6.2 nM | 3.5 nM | 7.3 nM | 0.51 nM | – | – | –
2 | HER3-hMab-A13 (antibody, V domains shown) VH: QVQLVESGGGLVQPGGSLRLSCSASGFSFSSSYWICWVRQAPGKGLEYIGYIWSGNGATYYASWAKGRFTISRDNSKNTVYLQMNSLRAEDTAVYFCARNYDASGYGIFHLWGPGTLVTVSS VL: DIQMTQTPSSLSASVGDRVTINCQASQSIVSSYLSWYQQKPGKPPKLLIYSASKLASGVPSRFSGSGSGTDFTLTISSLQPEDFATYYCLYGVDSSNIDNAFGGGTKVEIK | – | – | – | – | – | – | 2.5 ng/mL | – | –
3 | HER3-hMab-A15 (antibody, V domains shown) VH: QVQLVESGGGLVQPGGSLRLSCSASGFSFSSSYWICWVRQAPGKGLEYIGYIWSGNGATYYASWAKGRFTISRDNSKNTVYLQMNSLRAEDTAVYFCARNYDASGYGIFHLWGPGTLVTVSS VL: AVQMTQTPSSLSASVGDRVTINCQASQSIVSSYLSWYQQKPGKPPKLLIYSASKLASGVPSRFSGSGSGTDFTLTISSLQPEDFATYYCLYGVDSSNIDNAFGGGTKVEIK | – | – | – | – | – | – | 2.4 ng/mL | – | –
4 | Rab774 (antibody, V domains shown, also called Rab774 monoclonal antibody) VH: QSVEESGGRLVTPGTPLTLTCTVSGIDLSTYAMTWVRRAPGKGLEWLGIINRSSKTYLTDWARGRFTISKTSTTVDLKISSPTTEDTATYFCGRVMSPYSVAGGDLWGPGTLVTVSS VL: QPVLTQSPSASAALGASAKLTCILSSDLSDYTIDWYKHQQGEAPRYLMQLRSDGSYTKGTGVPDRFSGSSSGADRYLVISSVQADDEADYYCGLPYSVEYVFGGGTQLTVT | 60% | 2.3 nM | 3.8 nM | 1.8 nM | 0.16 nM | 0.52 nM | – | – | –
5 | HER3-hMab-A9 (antibody, V domains shown) VH: QVQLVESGGGLVQPGGSLRLSCSASGFSFSASYYIYWVRQAPGKGLEYIAYITGDDDKRTYYANWAKGRFTISRDNSKNTVYLQMNSLRAEDTAVYYCTRNLPDELWGPGTLVTVSS VL: DIQMTQTPSTLSASVGDRVTITCQSSESVYSYKNLAWYQQKPGKPPKLLIWQASRLSSGVPSRFSGSGSGTEFTLTISSLQPDDFATYYCQGTYYSSAWDFVFGGGTKVEIK | – | – | – | – | – | – | 3.1 ng/mL | 4.3 ng/mL | –

Further lines, with some results ahead:

Row | % Receptor Internalization [1] | pAKT inhibition, EC50 (nM) [2] | pERK ½ inhibition, EC50 (nM) [2] | pHER3 inhibition, EC50 (nM) [2] | Kd [3] | IC50 [4] | EC50 [5] | EC50 [9] | Binder | other results
6 | 55% | 3.6 nM | 5.5 nM | 1.7 nM | 3.6 nM | 0.07 nM | – | – | Rab189 (antibody, V domains shown, also called Rab189 monoclonal antibody) VH: QESLEESGGDLVKPEGTLTLTCKASGIGFGYYYYICWVRQAPGKGLEWIACIYTGISDSTYYATWAKGRFAISKTSSTTVTLQMTSLTAADTATYFCARSDPYYTTTYTNTYPTYWNLWGPGTLVTVSS VL: CAFELTQTPSSVEAAVGGTVTIKCQASQSINNYLAWYQQKTGQPPKLLIYRASTLESGVPSRFKGSGSGTQFTLTISDLECADAATYYCQSYYYSSSNNYYNAFGGGTEVVVK | –
7 | – | – | – | – | – | – | 1.9 ng/mL | – | HER3-hMab-A14 (antibody, V domains shown) VH: QVQLVESGGGLVQPGGSLRLSCSASGFSFSSSYWICWVRQAPGKGLELIGYIWSGNGATYYASWAKGRFTISRDTSKNTVYLQMNSLRAEDTAVYFCARNYDASGYGIFHLWGPGTLVTVSS VL: DIQMTQTPSSLSASVGDRVTINCQASQSIVSSYLSWYQQKPGKPPKLLIYSASKLASGVPSRFSGSGSGTDFTLTISSLQPEDFATYYCLYGVDSSNIDNAFGGGTKVEIK | Kd [6]: 0.862 nM; koff [6]: 0.000174 s⁻¹; kon [6]: 201000 M⁻¹ s⁻¹; Inhibition of MCF-7 cancer cell proliferation (IC50, µg/ml) [7]: 0.232 µg/mL; pHER3 inhibition (IC50, µg/ml) [8]: 0.0017 µg/ml
8 | – | – | – | – | – | – | 2.3 ng/mL | – | HER3-hMab-A16 (antibody, V domains shown) VH: QVQLVESGGGLVQPGGSLRLSCSASGFSFSSSYWICWVRQAPGKGLELIGYIWSGNGATYYASWAKGRFTISRDTSKNTVYLQMNSLRAEDTAVYFCARNYDASGYGIFHLWGPGTLVTVSS VL: AVQMTQTPSSLSASVGDRVTINCQASQSIVSSYLSWYQQKPGKPPKLLIYSASKLASGVPSRFSGSGSGTDFTLTISSLQPEDFATYYCLYGVDSSNIDNAFGGGTKVEIK | –
9 | 62% | 0.4 nM | 1.3 nM | 0.7 nM | 1 nM | 0.1 nM | – | – | Rab1210 (antibody, V domains shown, also called Rab1210 monoclonal antibody) VH: QEQLEESGGGLVQPEGSLTLTCTASGFSFSSSYWICWVRQAPGKGLELIGYIWSGNGATYYASWAKGRFTISKTSSTTVTLQMTSVTATDTATYFCARNYDASGYGIFHLWGPGTLVTVSS VL: AVVMTQTPASVSAAVGGTVTINCQASQSIVSSYLSWYQQKTGQPPKLLIYSASKLASGVPPRFSGSGSGTQFTLTISGVQCDDAATYYCLYGVDSSNIDNAFGGGTEVVVK | –
10 | – | – | – | – | – | – | 2.6 ng/mL | – | Chi1210 (antibody, V domains shown, also called parental rabbit/human Fc chimera of Rab1210) VH: QEQLEESGGGLVQPEGSLTLTCTASGFSFSSSYWICWVRQAPGKGLELIGYIWSGNGATYYASWAKGRFTISKTSSTTVTLQMTSVTATDTATYFCARNYDASGYGIFHLWGPGTLVTVSS VL: AVVMTQTPASVSAAVGGTVTINCQASQSIVSSYLSWYQQKTGQPPKLLIYSASKLASGVPPRFSGSGSGTQFTLTISGVQCDDAATYYCLYGVDSSNIDNAFGGGTEVVVK | Kd [6]: 1.2 nM; koff [6]: 0.000644 s⁻¹; kon [6]: 538000 M⁻¹ s⁻¹; Inhibition of MCF-7 cancer cell proliferation (IC50, µg/ml) [7]: 0.084 µg/mL; pHER3 inhibition (IC50, µg/ml) [8]: 0.0035 µg/ml
11 | – | – | – | – | – | – | 2.6 ng/mL | 5.4 ng/mL | HER3-hMab-A10 (antibody, V domains shown) VH: QVQLVESGGGLVQPGGSLRLSCSASGFSFSASYYIYWVRQAPGKGLEYIAYITGDDDKRTYYANWAKGRFTISRDTSKNTVYLQMNSLRAEDTAVYYCTRNLPDELWGPGTLVTVSS VL: DIQMTQTPSTLSASVGDRVTITCQSSESVYSYKNLAWYQQKPGKPPKLLIWQASRLSSGVPSRFSGSGSGTEFTLTISSLQPDDFATYYCQGTYYSSAWDFVFGGGTKVEIK | Kd [6]: 1.2 nM; koff [6]: 0.000169 s⁻¹; kon [6]: 141000 M⁻¹ s⁻¹; Inhibition of MCF-7 cancer cell proliferation (IC50, µg/ml) [7]: 0.181 µg/mL; pHER3 inhibition (IC50, µg/ml) [8]: 0.0173 µg/ml
12 | – | – | – | – | – | – | 2.4 ng/mL | 6.7 ng/mL | HER3-hMab-A12 (antibody, V domains shown) VH: QVQLVESGGGLVQPGGSLRLSCSASGFSFSASYYIYWVRQAPGKGLEYIAYITGDDDKRTYYANWAKGRFTISRDTSKNTVYLQMNSLRAEDTAVYYCTRNLPDELWGPGTLVTVSS VL: QAQMTQTPSTLSASVGDRVTITCQSSESVYSYKNLAWYQQKPGKPPKLLIWQASRLSSGVPSRFSGSGSGTEFTLTISSLQPDDFATYYCQGTYYSSAWDFVFGGGTKVEIK | –
13 | – | – | – | – | – | – | 2.6 ng/mL | 7.9 ng/mL | HER3-hMab-A11 (antibody, V domains shown) VH: QVQLVESGGGLVQPGGSLRLSCSASGFSFSASYYIYWVRQAPGKGLEYIAYITGDDDKRTYYANWAKGRFTISRDNSKNTVYLQMNSLRAEDTAVYYCTRNLPDELWGPGTLVTVSS VL: QAQMTQTPSTLSASVGDRVTITCQSSESVYSYKNLAWYQQKPGKPPKLLIWQASRLSSGVPSRFSGSGSGTEFTLTISSLQPDDFATYYCQGTYYSSAWDFVFGGGTKVEIK | –
